{"source": "paper PMC4108183", "key": {"[1]": {"substrate": "CC(C)(COP(=O)(O)OP(=O)(O)OC[C@H]1O[C@@H](n2cnc3c(N)ncnc32)[C@H](O)[C@@H]1OP(=O)(O)O)[C@@H](O)C(=O)NCCC(=O)NCCS", "experiment": "purified protein", "settings": "alternate sulfane sulfur acceptor; pH 9.0; 37.0 °C"}, "[2]": {"substrate": "O=S(O)(O)=S", "experiment": "purified protein", "settings": "pH 9.0, 37.0 °C"}}}
{"protein": "yeast RDL1 (Saccharomyces cerevisiae S288C) (protein) MWKAVMNAWNGTESQSKNVSNIQSYSFEDMKRIVGKHDPNVVLVDVREPSEYSIVHIPASINVPYRSHPDAFALDPLEFEKQIGIPKPDSAKELIFYCASGKRGGEAQKVASSHGYSNTSLYPGSMNDWVSHGGDKLDL", "values": [{"measurement": "Km", "setting": "[1]", "result": "150 ± 50", "unit": "µM"}, {"measurement": "Km", "setting": "[2]; sulfane sulfur transferred to active site cysteine (Cys98)", "result": "2000 ± 500", "unit": "µM"}]}
{"protein": "human TSTD1 (Homo sapiens) (protein) MAGAPTVSLPELRSLLASGRARLFDVRSREEAAAGTIPGALNIPVSELESALQMEPAAFQALYSAEKPKLEDEHLVFFCQMGKRGLQATQLARSLGYTGARNYAGAYREWLEKES", "values": [{"measurement": "Km", "setting": "[1]", "result": "90 ± 10", "unit": "µM"}, {"measurement": "Km", "setting": "[2]; sulfane sulfur transferred to active site cysteine (Cys79)", "result": "14000 ± 2000", "unit": "µM"}]}
